The results in this text go back to EP1666595A1 (Beth Israel Deaconess Medical Center, Inc., dated 2006).

B1: Gab2HA (HA-tagged wild type Gab2) (other, not shown: small tags and cut ends)
chain: MSGGGGDDVVCTGWLRKSPPEKKLRRYAWKKRWFILRSGRMSGDPDVLEYYKNEHSKKPLRIINLNLCEQVDAGLTFNKKELQDSFVFDIKTSERTFYLVAETEADMNKWVQSICQICGFNQAEESTDSLRNLSSASHGPRSSPAEFSSSQHLLRERKSSAPSHSSQPTLFTFEPPVSSHMQPTLSTSAPQEYLYLHQCISRRTENARSASFSQGTRQKSDTAVQKLAQSNGHCINGVGGQVHGFYSLPKPSRHNTEFKDSTYDLPRSLASHGHTKSSLTGSETDNEDVYTFKMPSNTLCRELGDLLVDNMDVPTTPLSAYQIPRTFTLDKNHNAMTVATPGDSAIAPPPRPPKPSQAETSQWGSIQQRPPISENSRSVAATIPRRNTLPAMDNSRLHRASSCETYEYPARGSGESASWSAEPPGKTAVGRSNSASSDDNYVPMNPGSSTLLAMERPGDNSQSVYIPMSPGPHHFDPLGYPSTALPIHRGPSRGSEIQPPPVNRNLKPDRKAKPTPLDLRNNTVIDELPFKSPVTKSWSRINSHTFNSSSSQYCRPISTQSITSTDSGDSEENYVPMQNPVSASPVPSGTNSPAPKKSTGSVDYLALDFQPGSPSPHRKPSTSSVTSDEKVDYVQVDKEKTQALQNTMQEWTDVRQSSEPSKGAKL
modifications: tyrosyl phosphorylated upon IL-3 stimulation

Assay [1] concerns the target T1, SHP-2 (endogenous, in BaF3, P210BCR-ABL BaF3 and BAC1.2F5 cells) (UniProt P35235 2-593).
T1 sequence (looked up): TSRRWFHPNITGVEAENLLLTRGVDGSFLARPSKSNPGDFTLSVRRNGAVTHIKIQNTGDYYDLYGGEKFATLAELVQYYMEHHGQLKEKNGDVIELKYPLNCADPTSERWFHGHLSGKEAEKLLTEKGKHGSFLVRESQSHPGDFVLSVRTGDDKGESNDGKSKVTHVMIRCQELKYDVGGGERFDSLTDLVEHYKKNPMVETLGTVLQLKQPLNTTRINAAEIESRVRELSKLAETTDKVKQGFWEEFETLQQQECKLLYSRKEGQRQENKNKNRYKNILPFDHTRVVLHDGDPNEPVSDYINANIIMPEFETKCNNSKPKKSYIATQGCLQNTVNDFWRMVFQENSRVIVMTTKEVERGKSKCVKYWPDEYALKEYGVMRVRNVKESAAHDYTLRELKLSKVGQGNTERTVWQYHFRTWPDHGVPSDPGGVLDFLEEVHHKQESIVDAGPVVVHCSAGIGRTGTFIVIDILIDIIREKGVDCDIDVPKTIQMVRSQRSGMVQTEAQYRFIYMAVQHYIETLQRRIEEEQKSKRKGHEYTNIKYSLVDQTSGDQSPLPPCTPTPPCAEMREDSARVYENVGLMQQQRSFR
Put plainly: cell-based or functional assay.

For assay [2], the target named is B1. Put plainly: immunoprecipitation and immunoblotting, transfected BaF3 cells. In general terms: A western blot detects proteins with antibodies after separation by electrophoresis.
For assay [3], the target named is T2, Gab2 (endogenous, in BaF3, P210BCR-ABL BaF3 and BAC1.2F5 cells) (Mus musculus (Mouse), UniProt Q9Z1S8 1-665, tyrosyl phosphorylated upon stimulation; Y604 and Y633 'both sites are highly phosphorylated').
T2 construct: BaF3 is a murine line, and KIAA0571 is called the possible human homolog; also called p97; p97/Gab2
Nature of the assay: immunoprecipitation and immunoblotting, BaF3 cells.

Consider B1, for which the “basal c-fos luciferase activity” value in assay [1] was around 2 fold.

B2: Crk-L (endogenous, in BaF3 cells) (other, UniProt P47941 1-303, looked up)
chain: MSSARFDSSDRSAWYMGPVTRQEAQTRLQGQRHGMFLVRDSSTCPGDYVLSVSENSRVSHYIINSLPNRRFKIGDQEFDHLPALLEFYKIHYLDTTTLIEPAPRYPSPPVGSVSAPNLPTAEENLEYVRTLYDFPGNDAEDLPFKKGELLVIIEKPEEQWWSARNKDGRVGMIPVPYVEKLVRSSPHGKHGNRNSNSYGIPEPAHAYAQPQTTTPLPTVASTPGAAINPLPSTQNGPVFAKAIQKRVPCAYDKTALALEVGDIVKVTRMNINGQWEGEVNGRKGLFPFTHVKIFDPQNPDDNE
notes: Named in brackets next to Crk
Take B2: the binding result in assay [2] and in assay [3] was “no binding” in each case.

B3: Crk (endogenous, in BaF3 cells) (other, UniProt Q64010 2-304, looked up)
chain: AGNFDSEERSSWYWGRLSRQEAVALLQGQRHGVFLVRDSSTSPGDYVLSVSENSRVSHYIINSSGPRPPVPPSPAQPPPGVSPSRLRIGDQEFDSLPALLEFYKIHYLDTTTLIEPVARSRQGSGVILRQEEAEYVRALFDFNGNDEEDLPFKKGDILRIRDKPEEQWWNAEDSEGKRGMIPVPYVEKYRPASASVSALIGGNQEGSHPQPLGGPEPGPYAQPSVNTPLPNLQNGPIYARVIQKRVPNAYDKTALALEVGELVKVTKINVSGQWEGECNGKRGHFPFTHVRLLDQQNPDEDFS
B3: the binding result in assay [2] and in assay [3] was “no binding” throughout.
